In publication PMC3893232:
Where two headings read alike, the source gives them in different places.

What was measured:
[1] = SEC
[2] = SEC; remark: listed apart in the source

IgG1-Y407A
% monomer [1]: 5% | % monomer [2]: 1%

IgG1-Y407E (natural mixture of HL and (HL)2)
% monomer [1]: 95% | % monomer [2]: 90%
